Target: CD150 (signaling lymphocyte activation molecule, SLAM) on EBV-infected human B cells, Raji cells or IM-9 cells (human) (UniProt Q13291)
Assay: cell-based or functional assay

UniProt Q13291, sequence (Q13291 21-335): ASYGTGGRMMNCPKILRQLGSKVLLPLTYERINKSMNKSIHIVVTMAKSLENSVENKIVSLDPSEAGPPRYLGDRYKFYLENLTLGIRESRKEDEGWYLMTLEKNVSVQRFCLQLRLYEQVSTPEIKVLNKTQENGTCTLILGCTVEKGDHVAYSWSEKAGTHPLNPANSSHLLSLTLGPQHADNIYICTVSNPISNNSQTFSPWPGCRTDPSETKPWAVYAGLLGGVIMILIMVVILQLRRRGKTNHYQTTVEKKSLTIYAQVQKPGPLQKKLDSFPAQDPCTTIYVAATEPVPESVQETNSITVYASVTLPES

- IL-1A production, mRNA level (real-time RT-PCR): 55 fold
- IL-1A production, protein level (ELISA): 23 fold
Substance: anti-CD150 mAb (clone IPO-3, Affinity Bioreagents) (antibody)

From patent publication US20140242694A1
